T1: RecD2-His (Bacillus subtilis RecD2 helicase with C-terminal His tag) (B. subtilis, UniProt O34481 1-798)
T1 sequence (looked up): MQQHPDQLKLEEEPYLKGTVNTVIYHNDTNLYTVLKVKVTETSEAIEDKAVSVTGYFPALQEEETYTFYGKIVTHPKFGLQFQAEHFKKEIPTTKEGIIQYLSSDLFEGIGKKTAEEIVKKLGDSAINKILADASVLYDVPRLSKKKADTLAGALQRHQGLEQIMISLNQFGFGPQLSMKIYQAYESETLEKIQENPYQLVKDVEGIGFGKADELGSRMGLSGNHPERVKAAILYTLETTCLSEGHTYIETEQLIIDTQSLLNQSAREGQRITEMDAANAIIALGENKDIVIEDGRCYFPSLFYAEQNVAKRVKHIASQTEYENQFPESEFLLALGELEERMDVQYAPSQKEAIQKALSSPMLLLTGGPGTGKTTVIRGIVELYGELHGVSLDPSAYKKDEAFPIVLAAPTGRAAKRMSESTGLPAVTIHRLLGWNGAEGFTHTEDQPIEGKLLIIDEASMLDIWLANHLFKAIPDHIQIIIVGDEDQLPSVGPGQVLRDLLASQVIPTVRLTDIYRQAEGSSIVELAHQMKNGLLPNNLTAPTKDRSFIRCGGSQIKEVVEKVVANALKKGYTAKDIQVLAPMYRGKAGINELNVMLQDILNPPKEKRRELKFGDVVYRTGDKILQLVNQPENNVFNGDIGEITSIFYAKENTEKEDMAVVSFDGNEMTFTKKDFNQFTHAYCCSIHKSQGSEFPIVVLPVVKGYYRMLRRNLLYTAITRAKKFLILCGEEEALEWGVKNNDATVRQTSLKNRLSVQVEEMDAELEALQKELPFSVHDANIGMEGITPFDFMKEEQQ

B1: RecA (Bacillus subtilis recombinase) (natural protein, B. subtilis, UniProt P16971 1-348, looked up)
chain: MSDRQAALDMALKQIEKQFGKGSIMKLGEKTDTRISTVPSGSLALDTALGIGGYPRGRIIEVYGPESSGKTTVALHAIAEVQQQGGQAAFIDAEHALDPVYAQKLGVNIEELLLSQPDTGEQALEIAEALVRSGAVDIVVVDSVAALVPKAEIEGDMGDSHVGLQARLMSQALRKLSGAINKSKTIAIFINQIREKVGVMFGNPETTPGGRALKFYSSVRLEVRRAEQLKQGNDVMGNKTKIKVVKNKVAPPFRTAEVDIMYGEGISKEGEIIDLGTELDIVQKSGSWYSYEEERLGQGRENAKQFLKENKDIMLMIQEQIREHYGLDNNGVVQQQAEETQEELEFEE
B2: SsbA (Bacillus subtilis single-stranded DNA binding protein) (natural protein, B. subtilis, UniProt P37455 1-172, looked up)
chain: MLNRVVLVGRLTKDPELRYTPNGAAVATFTLAVNRTFTNQSGEREADFINCVTWRRQAENVANFLKKGSLAGVDGRLQTRNYENQQGQRVFVTEVQAESVQFLEPKNGGGSGSGGYNEGNSGGGQYFGGGQNDNPFGGNQNNQRRNQGNSFNDDPFANDGKPIDISDDDLPF

Target: T1, RecD2-His (Bacillus subtilis RecD2 …)
Assay: far-Western, overlay or dot blot

| Binder | binding result |
| --- | --- |
| B1 | binds |
| B2 | binds |

Source: PMC8989531 (Nucleic Acids Research, 2022)
